The supplement of paper PMC5998384

What was measured:
[1] = test system: HeLa Kyoto; assay: solubility in G1/S (NP-40 vs SDS abundance) (log2 ratio); higher = more soluble; settings: cell cycle stage: G1/S
[2] = test system: HeLa Kyoto; assay: melting temperature (median over replicates), in situ; higher = more thermally stable
[3] = test system: HeLa Kyoto; assay: solubility change mitosis vs G1/S (difference of NP-40 vs SDS log2 ratios) (log2 ratio difference); higher = more soluble in mitosis
[4] = test system: HeLa Kyoto; assay: thermal stability score vs G1/S (z-score of summed log2 fold changes over temperatures); higher = more thermally stable than in G1/S
[5] = cell cycle stage: early G1 (4.5 h after nocodazole release)
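Throughout, for melting temperature (median over replicates), in situ: HeLa Kyoto cells synchronized by double thymidine or nocodazole block, proteins quantified by TMT10plex mass spectrometry, three independent biological replicates.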
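Throughout, for solubility change mitosis vs G1/S (difference of NP-40 vs SDS log2 ratios): synchronized HeLa Kyoto cells (double thymidine block for G1/S, nocodazole release for mitosis), protein amounts in NP-40 versus SDS lysates quantified by mass spectrometry, three biological replicates.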
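Throughout, for solubility in G1/S (NP-40 vs SDS abundance): HeLa Kyoto cells arrested at G1/S by double thymidine block, proteins quantified by TMT10plex mass spectrometry in mild NP-40 versus SDS extracts, three biological replicates.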
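Throughout, for thermal stability score vs G1/S (z-score of summed log2 fold changes over temperatures): synchronized HeLa Kyoto cells, proteins quantified by TMT10plex mass spectrometry, three biological replicates, mitosis taken 0.5 h after nocodazole release, G1/S directly after double thymidine block.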

Substance	solubility in G1/S (log2) [1]	melting temperature ([2]; cell cycle stage: G1/S)	melting temperature ([2]; cell cycle stage: mitosis)	solubility change mitosis (log2) [3]	thermal stability score [4, 5]	thermal stability score ([4]; cell cycle stage: mitosis)
MEDGKPVWAPHPTDGFQMGNIVDIGPDSLTIEPLNQKGKTFLALINQVFPAEEDSKKDVEDNCSLMYLNEATLLHNIKVRYSKDRIYTYVANILIAVNPYFDIPKIYSSEAIKSYQGKSLGTRPPHVFAIADKAFRDMKVLKMSQSIIVSGESGAGKTENTKFVLRYLTESYGTGQDIDDRIVEANPLLEAFGNAKTVRNNNSSRFGKFVEIHFNEKSSVVGGFVSHYLLEKSRICVQGKEERNYHIFYRLCAGASEDIREKLHLSSPDNFRYLNRGCTRYFANKETDKQILQNRKSPEYLKAGSMKDPLLDDHGDFIRMCTAMKKIGLDDEEKLDLFRVVAGVLHLGNIDFEEAGSTSGGCNLKNKSAQSLEYCAELLGLDQDDLRVSLTTRVMLTTAGGTKGTVIKVPLKVEQANNARDALAKTVYSHLFDHVVNRVNQCFPFETSSYFIGVLDIAGFEYFEHNSFEQFCINYCNEKLQQFFNERILKEEQELYQKEGLGVNEVHYVDNQDCIDLIEAKLVGILDILDEENRLPQPSDQHFTSAVHQKHKDHFRLTIPRKSKLAVHRNIRDDEGFIIRHFAGAVCYETTQFVEKNNDALHMSLESLICESRDKFIRELFESSTNNNKDTKQKAGKLSFISVGNKFKTQLNLLLDKLRSTGASFIRCIKPNLKMTSHHFEGAQILSQLQCSGMVSVLDLMQGGYPSRASFHELYNMYKKYMPDKLARLDPRLFCKALFKALGLNENDYKFGLTKVFFRPGKFAEFDQIMKSDPDHLAELVKRVNHWLTCSRWKKVQWCSLSVIKLKNKIKYRAEACIKMQKTIRMWLCKRRHKPRIDGLVKVGTLKKRLDKFNEVVSVLKDGKPEMNKQIKNLEISIDTLMAKIKSTMMTQEQIQKEYDALVKSSEELLSALQKKKQQEEEAERLRRIQEEMEKERKRREEDEKRRRKEEEERRMKLEMEAKRKQEEEERKKREDDEKRIQAEVEAQLARQKEEESQQQAVLEQERRDRELALRIAQSEAELISDEAQADLALRRSLDSYPVSKNDGTRPKMTPEQMAKEMSEFLSRGPAVLATKAAAGTKKYDLSKWKYAELRDTINTSCDIELLAACREEFHRRLKVYHAWKSKNKKRNTETEQRAPKSVTDYDFAPFLNNSPQQNPAAQIPARQREIEMNRQQRFFRIPFIRPADQYKDPQSKKKGWWYAHFDGPWIARQMELHPDKPPILLVAGKDDMEMCELNLEETGLTRKRGAEILPRQFEEIWERCGGIQYLQNAIESRQARPTYATAMLQSLLK [MYO6]	-0.238	52.1 °C	51.5 °C	-0.164	-0.962	-1.32
MADREGGCAAGRGRELEPELEPGPGPGSALEPGEEFEIVDRSQLPGPGDLRSATRPRAAEGWSAPILTLARRATGNLSASCGSALRAAAGLGGGDSGDGTARAASKCQMMEERANLMHMMKLSIKVLLQSALSLGRSLDADHAPLQQFFVVMEHCLKHGLKVKKSFIGQNKSFFGPLELVEKLCPEASDIATSVRNLPELKTAVGRGRAWLYLALMQKKLADYLKVLIDNKHLLSEFYEPEALMMEEEGMVIVGLLVGLNVLDANLCLKGEDLDSQVGVIDFSLYLKDVQDLDGGKEHERITDVLDQKNYVEELNRHLSCTVGDLQTKIDGLEKTNSKLQEELSAATDRICSLQEEQQQLREQNELIRERSEKSVEITKQDTKVELETYKQTRQGLDEMYSDVWKQLKEEKKVRLELEKELELQIGMKTEMEIAMKLLEKDTHEKQDTLVALRQQLEEVKAINLQMFHKAQNAESSLQQKNEAITSFEGKTNQVMSSMKQMEERLQHSERARQGAEERSHKLQQELGGRIGALQLQLSQLHEQCSSLEKELKSEKEQRQALQRELQHEKDTSSLLRMELQQVEGLKKELRELQDEKAELQKICEEQEQALQEMGLHLSQSKLKMEDIKEVNQALKGHAWLKDDEATHCRQCEKEFSISRRKHHCRNCGHIFCNTCSSNELALPSYPKPVRVCDSCHTLLLQRCSSTAS [RUFY1]	0.163	49.5 °C	49.8 °C	-0.0933	0.538	1.01
MAAKGAHGSYLKVESELERCRAEGHWDRMPELVRQLQTLSMPGGGGNRRGSPSAAFTFPDTDDFGKLLLAEALLEQCLKENHAKIKDSMPLLEKNEPKMSEAKNYLSSILNHGRLSPQYMCEAMLILGKLHYVEGSYRDAISMYARAGIDDMSMENKPLYQMRLLSEAFVIKGLSLERLPNSIASRFRLTEREEEVITCFERASWIAQVFLQELEKTTNNSTSRHLKGCHPLDYELTYFLEAALQSAYVKNLKKGNIVKGMRELREVLRTVETKATQNFKVMAAKHLAGVLLHSLSEECYWSPLSHPLPEFMGKEESSFATQALRKPHLYEGDNLYCPKDNIEEALLLLLISESMATRDVVLSRVPEQEEDRTVSLQNAAAIYDLLSITLGRRGQYVMLSECLERAMKFAFGEFHLWYQVALSMVACGKSAYAVSLLRECVKLRPSDPTVPLMAAKVCIGSLRWLEEAEHFAMMVISLGEEAGEFLPKGYLALGLTYSLQATDATLKSKQDELHRKALQTLERAQQLAPSDPQVILYVSLQLALVRQISSAMEQLQEALKVRKDDAHALHLLALLFSAQKHHQHALDVVNMAITEHPENFNLMFTKVKLEQVLKGPEEALVTCRQVLRLWQTLYSFSQLGGLEKDGSFGEGLTMKKQSGMHLTLPDAHDADSGSRRASSIAASRLEEAMSELTMPSSVLKQGPMQLWTTLEQIWLQAAELFMEQQHLKEAGFCIQEAAGLFPTSHSVLYMRGRLAEVKGNLEEAKQLYKEALTVNPDGVRIMHSLGLMLSRLGHKSLAQKVLRDAVERQSTCHEAWQGLGEVLQAQGQNEAAVDCFLTALELEASSPVLPFSIIPREL [TTC7A]	0.161	51.2 °C	–	-0.168	0.0827	-0.515
SLC27A2	-0.335	50 °C	50.3 °C	-0.133	2.25	2.44
MARFALTVVRHGETRFNKEKIIQGQGVDEPLSETGFKQAAAAGIFLNNVKFTHAFSSDLMRTKQTMHGILERSKFCKDMTVKYDSRLRERKYGVVEGKALSELRAMAKAAREECPVFTPPGGETLDQVKMRGIDFFEFLCQLILKEADQKEQFSQGSPSNCLETSLAEIFPLGKNHSSKVNSDSGIPGLAASVLVVSHGAYMRSLFDYFLTDLKCSLPATLSRSELMSVTPNTGMSLFIINFEEGREVKPTVQCICMNLQDHLNGLTETR [TIGAR]	0.348	50.2 °C	50.3 °C	-0.0797	-0.092	0.286
MAPVEHVVADAGAFLRHAALQDIGKNIYTIREVVTEIRDKATRRRLAVLPYELRFKEPLPEYVRLVTEFSKKTGDYPSLSATDIQVLALTYQLEAEFVGVSHLKQEPQKVKVSSSIQHPETPLHISGFHLPYKPKPPQETEKGHSACEPENLEFSSFMFWRNPLPNIDHELQELLIDRGEDVPSEEEEEEENGFEDRKDDSDDDGGGWITPSNIKQIQQELEQCDVPEDVRVGCLTTDFAMQNVLLQMGLHVLAVNGMLIREARSYILRCHGCFKTTSDMSRVFCSHCGNKTLKKVSVTVSDDGTLHMHFSRNPKVLNPRGLRYSLPTPKGGKYAINPHLTEDQRFPQLRLSQKARQKTNVFAPDYIAGVSPFVENDISSRSATLQVRDSTLGAGRRRLNPNASRKKFVKKR [NOB1]	-0.457	50.3 °C	49.8 °C	0.197	0.938	0.387
MKRSVAVWLLVGLSLGVPQFGKGDICDPNPCENGGICLPGLADGSFSCECPDGFTDPNCSSVVEVASDEEEPTSAGPCTPNPCHNGGTCEISEAYRGDTFIGYVCKCPRGFNGIHCQHNINECEVEPCKNGGICTDLVANYSCECPGEFMGRNCQYKCSGPLGIEGGIISNQQITASSTHRALFGLQKWYPYYARLNKKGLINAWTAAENDRWPWIQINLQRKMRVTGVITQGAKRIGSPEYIKSYKIAYSNDGKTWAMYKVKGTNEDMVFRGNIDNNTPYANSFTPPIKAQYVRLYPQVCRRHCTLRMELLGCELSGCSEPLGMKSGHIQDYQITASSIFRTLNMDMFTWEPRKARLDKQGKVNAWTSGHNDQSQWLQVDLLVPTKVTGIITQGAKDFGHVQFVGSYKLAYSNDGEHWTVYQDEKQRKDKVFQGNFDNDTHRKNVIDPPIYARHIRILPWSWYGRITLRSELLGCTEEE [EDIL3]	-0.122	–	55.6 °C	-0.0391	1.05	0.661
MTQAEIKLCSLLLQEHFGEIVEKIGVHLIRTGSQPLRVIAHDTGTSLDQVKKALCVLVQHNLVSYQVHKRGVVEYEAQCSRVLRMLRYPRYIYTTKTLYSDTGELIVEELLLNGKLTMSAVVKKVADRLTETMEDGKTMDYAEVSNTFVRLADTHFVQRCPSVPTTENSDPGPPPPAPTLVINEKDMYLVPKLSLIGKGKRRRSSDEDAAGEPKAKRPKYTTDNKEPIPDDGIYWQANLDRFHQHFRDQAIVSAVANRMDQTSSEIVRTMLRMSEITTSSSAPFTQPLSSNEIFRSLPVGYNISKQVLDQYLTLLADDPLEFVGKSGDSGGGMYVINLHKALASLATATLESVVQERFGSRCARIFRLVLQKKHIEQKQVEDFAMIPAKEAKDMLYKMLSENFMSLQEIPKTPDHAPSRTFYLYTVNILSAARMLLHRCYKSIANLIERRQFETKENKRLLEKSQRVEAIIASMQATGAEEAQLQEIEEMITAPERQQLETLKRNVNKLDASEIQVDETIFLLESYIECTMKRQ [POLR3C]	0.132	50.5 °C	51.1 °C	-0.0973	1.65	1.67
MEVKPPPGRPQPDSGRRRRRRGEEGHDPKEPEQLRKLFIGGLSFETTDDSLREHFEKWGTLTDCVVMRDPQTKRSRGFGFVTYSCVEEVDAAMCARPHKVDGRVVEPKRAVSREDSVKPGAHLTVKKIFVGGIKEDTEEYNLRDYFEKYGKIETIEVMEDRQSGKKRGFAFVTFDDHDTVDKIVVQKYHTINGHNCEVKKALSKQEMQSAGSQRGRGGGSGNFMGRGGNFGGGGGNFGRGGNFGGRGGYGGGGGGSRGSYGGGDGGYNGFGGDGGNYGGGPGYSSRGGYGGGGPGYGNQGGGYGGGGGYDGYNEGGNFGGGNYGGGGNYNDFGNYSGQQQSNYGPMKGGSFGGRSSGSPYGGGYGSGGGSGGYGSRRF [HNRNPA3]	-0.252	47.8 °C	49.3 °C	0.411	2.6	4.71
MMEERAAAAVAAAASSCRPLGSGAGPGPTGAAPVSAPAPGPGPAGKGGGGGGSPGPTAGPEPLSLPGILHFIQHEWARFEAEKARWEAERAELQAQVAFLQGERKGQENLKTDLVRRIKMLEYALKQERAKYHKLKFGTDLNQGEKKADVSEQVSNGPVESVTLENSPLVWKEGRQLLRQYLEEVGYTDTILDMRSKRVRSLLGRSLELNGAVEPSEGAPRAPPGPAGLSGGESLLVKQIEEQIKRNAAGKDGKERLGGSVLGQIPFLQNCEDEDSDEDDELDSVQHKKQRVKLPSKALVPEMEDEDEEDDSEDAINEFDFLGSGEDGEGAPDPRRCTVDGSPHELESRRVKLQGILADLRDVDGLPPKVTGPPPGTPQPRPHEDVFIMDTIGGGEVSLGDLADLTVTNDNDLSCDLSDSKDAFKKTWNPKFTLRSHYDGIRSLAFHHSQSALLTASEDGTLKLWNLQKAVTAKKNAALDVEPIHAFRAHRGPVLAVAMGSNSEYCYSGGADACIHSWKIPDLSMDPYDGYDPSVLSHVLEGHGDAVWGLAFSPTSQRLASCSADGTVRIWDPSSSSPACLCTFPTASEHGVPTSVAFTSTEPAHIVASFRSGDTVLYDMEVGSALLTLESRGSSGPTQINQVVSHPNQPLTITAHDDRGIRFLDNRTGKPVHSMVAHLDAVTCLAVDPNGAFLMSGSHDCSLRLWSLDNKTCVQEITAHRKKHEEAIHAVACHPSKALIASAGADALAKVFV [STRN4]	0.104	50.6 °C	50.4 °C	-0.085	0.143	0.0318
